Consider 1 substance from patent US20180030455A1.

The assay has as its target vitreal Sema3A of STZ-treated diabetic mice (endogenous mouse Semaphorin3A) (mouse) (UniProt O08665). The assay is described as follows: cell-based or functional assay.
Sequence of UniProt O08665 (O08665 21-772 limits assumed): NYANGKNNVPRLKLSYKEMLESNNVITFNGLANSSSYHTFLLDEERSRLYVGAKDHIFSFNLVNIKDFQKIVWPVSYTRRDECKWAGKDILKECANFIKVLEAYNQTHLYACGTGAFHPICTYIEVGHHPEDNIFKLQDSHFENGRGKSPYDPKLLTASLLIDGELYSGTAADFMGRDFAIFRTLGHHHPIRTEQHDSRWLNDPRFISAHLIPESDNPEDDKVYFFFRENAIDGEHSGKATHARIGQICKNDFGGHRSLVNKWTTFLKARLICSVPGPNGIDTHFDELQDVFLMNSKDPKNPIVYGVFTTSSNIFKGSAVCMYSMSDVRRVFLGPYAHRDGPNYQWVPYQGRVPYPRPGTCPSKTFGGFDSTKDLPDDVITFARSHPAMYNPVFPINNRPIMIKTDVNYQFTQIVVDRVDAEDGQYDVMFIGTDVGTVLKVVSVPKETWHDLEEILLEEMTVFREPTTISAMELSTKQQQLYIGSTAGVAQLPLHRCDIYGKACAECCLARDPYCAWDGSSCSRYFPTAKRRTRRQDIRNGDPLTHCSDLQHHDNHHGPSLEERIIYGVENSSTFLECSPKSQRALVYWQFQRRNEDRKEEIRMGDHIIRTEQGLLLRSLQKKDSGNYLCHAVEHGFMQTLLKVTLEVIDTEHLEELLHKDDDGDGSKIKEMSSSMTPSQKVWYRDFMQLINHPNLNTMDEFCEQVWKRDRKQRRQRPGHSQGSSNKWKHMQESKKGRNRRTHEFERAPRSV

The substance “recombinant mouse soluble Neuropilin-1 (rmNRP1) (from UniProt P97333 22-856) (receptor)” had a reduction in retinal permeability (Evans Blue permeation) at week 8 of diabetes, after intravitreal injection of rNrp-1 in STZ mice at weeks 6 and 7 of 48.1%.
